Test results from the supplement of paper PMC9170038.

Tested on: MS2 coat protein
Assay: apparent KD of MS2 coat protein; designed switch direction (-1 OFF switch, 1 ON switch): 1; higher = weaker reporter binding
Procedure, shortened: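 Designed RNA switches with common flanks were transcribed on Illumina chips by stalled E. coli RNA polymerase and titrated with SNAP-549-labelled MS2 coat protein, from 0.7 or 1.5 nM doubling to 3 µM, in Tris-HCl pH 7.5 buffer with KCl, MgCl2, BSA, DTT, tRNA and Tween-20. Steps lasted 0.8–1.5 h (lowest) to 10–20 min (highest). Titrations ran without input, with 200 uM small-molecule ligand, or with an oligonucleotide input. Normalised cluster fluorescence was curve-fitted, and apparent KD is the per-design median over clusters.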

[1] = input ligand: microRNA oligo, concentration not stated
[2] = Eterna round: R95, input ligand: microRNA oligo, concentration not stated
[3] = Eterna round: R95, input ligand: FMN 200 uM
[4] = Eterna round: R95, input ligand: none

| Sequence | apparent KD of MS2 coat protein (input ligand: FMN 200 uM) [nM] | apparent KD of MS2 coat protein [1] [nM] | apparent KD of MS2 coat protein (input ligand: none) [nM] | apparent KD of MS2 coat protein [2] [nM] | apparent KD of MS2 coat protein [3] [nM] | apparent KD of MS2 coat protein [4] [nM] |
| --- | --- | --- | --- | --- | --- | --- |
| AUCCGGAAGCGAGGAUAUGCAGAGGAUCACCCUGCAGAAGGCGCGAUCGCGAGGAUAUGCAGAGGAUCACCCUGCAGAAGGCGC [pwkr ssNG DX.31] (Eterna round: R96, puzzle: Same State NG 1) | 15.5 | 20.3 | 25.1 |  |  |  |
| AUCCUAAACACAGGAUAUCCCAGUCAUGAUCUGGGAGAAGGGUGGCCACAUGAGGAUCACCCAUGUGAAGUGCCAGAGGCACGA [MOD3 Xexeraed] (Eterna round: R96, puzzle: Same State NG 1) | 397 | 359 | 582 |  |  |  |
| AUGAAGAAUUAAGGAUAUUGAUUACAUAUGUUUAACAUGAGGAUCACCCAUGUGGGUUGCGGUAUCGAGAAGGUAAAUUACUAG [JL SSNG2 1.48] (Eterna round: R96, puzzle: Same State NG 2) | 150 | 99.6 | 128 |  |  |  |
| AUGCCAAAUGGAGGAUAUGGAGCCUUAUUGGCUCCAGAAGGUCAGACAUGAGGAUCACCCAUGUGGCAGUGGUCUAAUGACCAC [Eli NG1ss - 39] (Eterna round: R96, puzzle: Same State NG 1) | 126 | 392 | 638 |  |  |  |
| AUUAAACAUGAGGAUCACCCAUGUAAUAUUAUGGGAGGAUAUGCGAAUUUAAUUAAUUAAGCAGAAGGCCUAAUUA [Mat - Same State 1 - D101] (puzzle: Same State 1) |  |  |  | 106 |  |  |
| AUUAAACAUGAGGAUCACCCAUGUCAACAAUGUCGAGGAUAUGGGCAAAUAAAAUAAGAACCAGAAGGCGAAUAAU [salish99_ss1_r3_076] (puzzle: Same State 1) |  |  |  | 426 | 39.9 | 303 |
| AUUAAUAAUCGAGGAUAUCACGUCGAAUAGACGUGAGAAGGCGAUCAUAACAUGAGGAUCACCCAUGUAUUACAUGAAAUUAAU [SSNG1/4-B4] (Eterna round: R96, puzzle: Same State NG 1) | 22.4 | 20.5 | 38.1 |  |  |  |
| AUUAAUAAUCUAGGAUAUCACGUCGAUUAGACGUGAGAAGGAGAUCAUAACAUGAGGAUCACCCAUGUAUUACAUGAAGUUAAU [SSNG1/7-B2] (Eterna round: R96, puzzle: Same State NG 1) | 27.5 | 28.8 | 38.1 |  |  |  |
| AUUACUAACAUAGGAUAUCAUGCGAAAAUUGCGUGAGAAGGGUGGACACUGUCAUUCUCGGAGCACAUGAGGAUCACCCAUGUG [SameState NG1 #70] (Eterna round: R96, puzzle: Same State NG 1) | 80.6 | 42.4 | 59 |  |  |  |
| AUUACUAACAUAGGAUAUCAUGCGAAAAUUGCGUGAGAAGGGUGGACACUGUCUUUCUCGGAGCACAUGAGGAUCACCCAUGUG [SameState NG1 #69] (Eterna round: R96, puzzle: Same State NG 1) | 81.4 | 41.5 | 65 |  |  |  |
| AUUAGUGGUGGAGGAUAUGGGAAAGGAAGUGUACUAGAAGGCCACCGCCCUCUAGCACAUGAGGAUCACCCAUGUAUAGAGCCC [PowerStrip SSNG 1.14] (Eterna round: R96, puzzle: Same State NG 1) | 243 | 25.8 | 88.2 |  |  |  |
| AUUAUAAAUGCAGGAUAUGAUUAACAUGAGGAUCACCCAUGUGGUGUUGUGAGUAAGGAGAGUGAUCAGAAGGGCAUUUUUUUU [JMF's solution 24] (Eterna round: R96, puzzle: Same State NG 2) | 620 | 343 | 555 |  |  |  |
| AUUAUUAAUGCAGGAUAUGAUUAACAUGAGGAUCACCCAUGUGGUGUUGUGAGUAAGGAGAGAGAUCAGAAGGGCAUUUUUUUU [JMF's solution 5] (Eterna round: R96, puzzle: Same State NG 2) | 317 | 263 | 361 |  |  |  |
| AUUAUUUAUGCAGGAUAUGAUUAACAUGAGGAUCACCCAUGUGGUGUUGUGAGUAAGGAGAGUGAUCAGAAGGGCAUUUUUUGU [JMF's solution 54] (Eterna round: R96, puzzle: Same State NG 2) | 713 | 531 | 464 |  |  |  |
| AUUGCUAGCGCAGGAUAUGAUGCGAAAAUUGCGUCAGAAGGGUGUACUCUCUCAUUGCGGGAGGACAUGAGGAUCACCCAUGUC [SameState NG1 #83] (Eterna round: R96, puzzle: Same State NG 1) | 66.6 | 71.5 | 83.3 |  |  |  |
| AUUGCUUACGCAGGAUAUGAUGCGAAAAUUGCGUCAGAAGGGUGAAGUGACUCGUUGCAACAGGACAUGAGGAUCACCCAUGUC [SameState NG1 #91] (Eterna round: R96, puzzle: Same State NG 1) | 89 | 127 | 141 |  |  |  |
| AUUUAACAAGCUUUUUGCUCGUCUUAUAAACAUGAGGAUCACCCAUGUAAUAGCGUGAGAGUAAAUAUUUAAAUAAU [JMF 93] (puzzle: Sensor for hsa-mir-208a) |  |  |  | 48.3 | 14.5 | 11.1 |
| AUUUUUAAUGCAGGAUAUGAUUAACAUGAGGAUCACCCAUGUGGUGUUGUGAGUAAGGAGAGUGAUCAGAAGGGCAUCUUUUUU [JMF's solution 81] (Eterna round: R96, puzzle: Same State NG 2) | 567 | 529 | 490 |  |  |  |
| AUUUUUAAUGCAGGAUAUGAUUAACAUGAGGAUCACCCAUGUGGUGUUGUGAGUAAGGAGAGUGAUCAGAAGGGCAUUUUUUCU [JMF's solution 88] (Eterna round: R96, puzzle: Same State NG 2) | 340 | 391 | 500 |  |  |  |
| CAAGAAAACGCAGGAUAUACCCGAACAACCCGGGUAGAAGGGUGACACAUGAGGAUCACCCAUGUACAUGGCAUUAGCCAUGGA [Esusxebeis] (Eterna round: R96, puzzle: Same State NG 1) | 1020 | 262 | 430 |  |  |  |
| CAAGGGUACGGAUUAGUACAUGAGGAUCACCCAUGUAUCCGACAGGAUAUCAUGUAAGAAGCCAGUGAGAAGGGUCUAGUCCAA [Eternabot solution 43] (Eterna round: R96, puzzle: Same State NG 3) | 367 | 205 | 460 |  |  |  |
| CACGUCCAGGUAGGAUAUGAGGUGCCAUAGGGAACAGCCUAUGGACAUGAGGAUCACCCAUGUCCUCAGAAGGGCCAGACGUGA [Rasote] (Eterna round: R96, puzzle: Same State NG 2) | 25.7 | 116 | 171 |  |  |  |
| CAGCGCUGCCGGGAGGAUAUGCGGUGAUGGACAUGAGGAUCACCCAUGUUAGCGGUAGCAUUACGGCAGAAGGCCCUGCAGCUGC [Soteed Omei mod 1] (puzzle: Same State 2) |  |  |  | 12.3 | 10.9 | 12.3 |
| CAGCGCUGUCGAGAGGAUAUGCGGUGAUGGACAUGAGGAUCACCCAUGUUAGCGAUAGCAUUACUGUAGAAGGCUCUACAGCUGC [JL-ss2-3.08 ViennaUCT mod] (puzzle: Same State 2) |  |  |  | 24.3 |  |  |
| CAUUCUUUUCCGGAGGAUAUGCUACCCUUUACAUGAGGAUCACCCAUGUUACCCUCUUCUUGUCAGUAGAAGGCCGUUUCUUAAC [Regan] (puzzle: Same State 2) |  |  |  | 27.3 |  |  |
| CCAAUGUACAAUUUAGAUCUACAUGAGGAUCACCCAUGUACAGAGGAUAUCAGCUCGAAUAGAGCUGAGAAGGCUGAAUUAAUU [SSNG3/3-A1] (Eterna round: R96, puzzle: Same State NG 3) | 88.2 | 153 | 226 |  |  |  |
| CCCGUCUACAGAAAGGUAGAUGGGAAUGUACAUGAGGAUCACCCAUGUUAAUAUGAGUUUGUUGAUAAUUAUGAAUU [Modxample 50 - Jieux - Sensor for bsa-mir-208a] (Eterna round: R96, puzzle: Sensor for hsa-mir-208a) | 19.7 | 18.9 | 24.4 |  |  |  |
| CCCUGAGGUAGCCCACAGGGACAUGAGGAUCACCCAUGUACACAGGAUAUCGAGGGCUCCGCCUUCGAGAAGGGUGAUCAAACU [Geditedi] (Eterna round: R96, puzzle: Same State NG 3) | 148 | 18.2 | 53.4 |  |  |  |
